The values that follow come from paper PMC7555777, “Cataract-Associated New Mutants S175G/H181Q of βΒ2-Crystallin and P24S/S31G of γD-Crystallin Are Involved in Protein Aggregation by Structural Changes” (International Journal of Molecular Sciences, 2020).

Positions count from the first letter of the chain named. Numbers in names are those of the source.

The series deals with the molecule itself. Description: SEC; Superdex 200 HR 10/30 in PBS; 450 µg/100 µL protein loaded; 0.5 mL/min; UV 280 nm; markers albumin (66.4 kDa) and α-lactalbumin (14.2 kDa); dimer in rapid equilibrium with monomer. In general terms: Size exclusion chromatography separates by hydrodynamic size, large species first.

B1: wild-type βB2-crystallin (natural protein, human)
chain: ASDHQTQAGKPQSLNPKIIIFEQENFQGHSHELNGPCPNLKETGVEKAGSVLVQAGPWVGYEQANCKGEQFVFEKGEYPRWDSWTSSRRTDSLSSLRPIKVDSQEHKIILYENPNFTGKKMEIIDDDVPSFHAHGYQEKVSSVRVQSGTWVGYQYPGYRGLQYLLEKGDYKDSSDFGAPHPQVQSVRRIRDMQWHQRGAFHPSN
notes: human beta-crystallin B2 (CRBB2 cDNA from a human cDNA library in pGEX-4t-1); Residues left by the vector after the thrombin cut are not described; also called WT βB2-crystallin; Beta-crystallin B2; source: E. coli BL21 (DE3), purified (glutathione-agarose, GST cut off with thrombin)
As to B1, the binding result was “binds”.

B2: S175G/H181Q mutant βB2-crystallin (natural protein, human)
chain: B1 chain with S174G, H180Q
notes: human beta-crystallin B2 (CRBB2 cDNA in pGEX-4t-1) with the two changes found in cataract lenses, made by site-directed mutagenesis; Residues left by the vector after the thrombin cut are not described; also called S175G/H181Q βB2-crystallin; CRBB2 S175G/H181Q; source: E. coli BL21 (DE3), purified (glutathione-agarose, GST cut off with thrombin)
Consider B2, for which the binding result is reported as “binds”.
